Laboratory results from paper PMC12339391, “PEX39 facilitates the peroxisomal import of PTS2-containing proteins” (Nature Cell Biology, 2025).
Where no end group is shown, it is not given here.

T1: FLAG-PEX7 (recombinant N-terminally FLAG-tagged human PEX7) (human, UniProt O00628 1-323)
T1 construct: PEX7, human; also called recombinant human FLAG-tagged PEX7; source: Hi5 insect cells (baculovirus, pACEBac1), purified (anti-FLAG M2 beads, FLAG peptide elution); not shown: FLAG, N-terminal, kept
T1 sequence (looked up): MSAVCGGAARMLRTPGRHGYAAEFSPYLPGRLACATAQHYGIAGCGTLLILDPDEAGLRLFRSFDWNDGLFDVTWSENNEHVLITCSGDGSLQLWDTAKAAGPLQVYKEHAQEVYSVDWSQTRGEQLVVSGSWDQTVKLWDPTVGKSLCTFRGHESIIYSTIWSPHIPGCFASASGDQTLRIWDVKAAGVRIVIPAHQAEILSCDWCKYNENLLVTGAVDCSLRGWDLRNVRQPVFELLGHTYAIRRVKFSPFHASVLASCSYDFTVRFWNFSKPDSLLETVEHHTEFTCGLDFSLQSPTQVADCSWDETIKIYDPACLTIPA

B1: NtPEX13 (HsPEX13 residues 1–36 fused to Sumo1 with a hexa-histidine tag) (domain or fragment, human, UniProt Q92968 1-36, looked up)
chain: MASQPPPPPKPWETRRIPGAGPGPGPGPTFQSADLG
modifications: also: fused to Sumo1 with a hexa-histidine tag
notes: PEX13, human, residues 1–36; also called NtPEX13.Sumo.His; PEX13 N terminus; source: recombinant (plasmid pET23a-NtPEX13.Sumo.His); not shown: His6, C-terminal, kept
B2: GST-HsPEX39 (N-terminally GST-tagged human PEX39, C6ORF226) (natural protein, UniProt Q5I0X4 1-101, looked up)
chain: MERPRSPQCSAPASASASVTLAQLLQLVQQGQELPGLEKRHIAAIHGEPTASRLPRRPKPWEAAALAESLPPPTLRIGTAPAEPGLVEAATAPSSWHTVGP
notes: HsPEX39 (C6ORF226), human; plasmid pGEX-HsPEX39 (pGEX-6-P1); 101 residues by the printed limits of the 48–101 variant; also called recombinant HsPEX39; wild-type (WT) HsPEX39; source: E. coli BL21(DE3), purified (Glutathione Sepharose 4B); not shown: GST, N-terminal, kept

Assays:
[1] = biological target: T1, FLAG-PEX7 (recombinant N-terminally …); experiment: SEC; Superdex 200 Increase 3.2/300, 50 mM Tris-HCl pH 7.5, 150 mM NaCl, 1 mM EDTA; proteins (10–15 µg) alone or mixed, 15 min at 23 °C before injection; fractions on SDS-PAGE; conditions: both partners purified
[2] = biological target: T1, FLAG-PEX7 (recombinant N-terminally …); experiment: native gel or EMSA; only recombinant proteins, two at a time (approximately 5 µg each of FLAG-PEX7, GST-HsPEX39, His-PEX5(1–324), His-PHYH); Coomassie staining; excised bands immunoblotted; conditions: both partners purified

Binder | binding result [1] | binding result [2]
B1 | binds | –
B2 | – | binds
